Experimental data as given in publication PMC8220720, “Universal capability of 3-ketosteroid Δ^1-dehydrogenases to catalyze Δ^1-dehydrogenation of C17-substituted steroids” (Microbial Cell Factories, 2021).

What was measured:
Test in all cases: purified protein
Type in all cases: biochemical, Sterolibacterium denitrificans
purified protein [1] = substrate: CC(C)CCC[C@@H](C)[C@H]1CC[C@H]2[C@@H]3CCC4=CC(=O)CC[C@]4(C)[C@H]3CC[C@]12C; conditions: apparent, as total steroid concentration, DCPIP as acceptor, 2% HBC, 2% EGME, 0.1 M potassium phosphate pH 6.5, 30 °C
purified protein [2] = substrate: C[C@]12CCC(=O)C=C1CC[C@@H]1[C@@H]2CC[C@]2(C)C(=O)CC[C@@H]12; conditions: pH 6.5; 30.0 °C
purified protein [3] = substrate: O=C1C(Cl)=CC(=Nc2ccc(O)cc2)C=C1Cl; conditions: apparent, electron acceptor, co-substrate cholest-4-en-3-one, 2% HBC, 2% EGME, 0.1 M potassium phosphate pH 6.5, 30 °C

B1: AcmB (Sterolibacterium denitrificans) (protein)
chain: MSIETNTYDVIVVGSGAGAMLAAARAHDLGLSVLVVEKSDKYGGTSAVSGGAVWIPNNSQMQIKDSFDEALTYLKAATQGLVAEDRLLAYLESAPQMVEYINANMTLQYFPCHRYPDYYQHLPGAKPGGRTMEPMLFDAALLGDEFANLRMAYTGTLLMGKASMTATEAHVMLAKEPGWMLQVIKSLGRYYLDLPWRLKSRHDRKRGLGNAMAAGLRHALLERKVPLWLNTPFESLITEGAENKRVTGIVVKRNGQTLQLTARRGVVLGAGGFERNQQMREQYLPKPTNAAWSATPPHNTGDTIRAAMDIGARAELMDWAWWVPSIHVPGEAAQTGLFAERNLPGCIVVNGKGQRFINEASPYLEFGAAMYENHARSGSAVPAWLIFDGKFRYNYPMGPLMPGQIQPDRKAWLGKVYWRDDTLEGLAKQIGVDAAGLKQSVELNNQYAQDGKDREFDKGGNVFDRYYGDYNVKPNPCLAPIGKPPYYAMRVDAGDIGTKGGLLTDKDARVLDESDRPIEGLYCIGNNSASVMGKAYPGAGGTLGPAMTFGFRAANHIAASK
notes: recombinant, purified; cloned, expressed and purified as in the authors' earlier work; FAD enzyme
- Km (purified protein [1]): 23.7 ± 1.16 µM
- kcat (purified protein [1]): 5.8 ± 0.2 s⁻¹
- kcat/Km (purified protein [1]): 245000 ± 1000 M⁻¹ s⁻¹
- Km (purified protein [2]): 529.2 ± 32.5 µM
- kcat/Km (purified protein [2]): 87000 ± 5000 M⁻¹ s⁻¹
- Km (purified protein [3]): 37.3 ± 3.3 µM
- kcat (purified protein [3]): 5.8 ± 0.2 s⁻¹
